The target in this assay is Fc gamma receptor (Fc(γ)R) on dendritic cells. As to the kind of experiment: cell-based or functional assay.

As to monoclonal antibody 3G4 (ATCC PTA 4545), the DC uptake of apoptotic tumor cells was determined as 300%.

The values are drawn from US20040131610A1.
